Experimental findings from the nanobody polyreactivity screen of Harvey et al. (2022) are described below.

This data set can be described thus: yeast display, Sf9 membrane polyspecificity reagent, FACS + sequencing; frameworks hold sequencing errors. In outline:
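Genes from sorted yeast were amplified by colony PCR, read by MiSeq 2 × 250 sequencing and filtered on CDR length. These cells carried a synthetic nanobody library in Saccharomyces cerevisiae BJ5465 and were sorted by FACS into low and high (top ~1%) gates on anti-HA and streptavidin fluorescence. Polyreactivity is labelled according to the gate of origin.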
As to “QVQLVESGGGLVQAGGSLRLSCAASGSTFSDYAMGWYRPEPGQERELVATITSTGDTNYADSVKGRFTISRDNAKNTVYLQMNSLKPEDTAVYYCAAQHKKYGKRGLWNNFGYWGQGTQVSVSS”, the “polyreactivity (PSR sort gate)” value was “low polyreactivity”.
With “QVQLVESGGGLVQAGGSLRLICAASGFIIYIYAMGWYRQAPGKERELVAAISRSGVGTYYADSVKGRFTISRDNAKNTVYLQMNSLKPEDTAVYYCARSRSGYRYDYWGQGTQVTVSS” the entry was “high polyreactivity”; with “QVQLVESGGGLVQAGGSLRLSCAASGRTFYRYAMGWYRQAPGKERELVARITSGSSTNYADSVKGRFTISRDNAKNTVYLQMNSLKPEDTAVYYCAKDPRPYLDYDYWGQGTQVTVSS”, “low polyreactivity”.
The value for “QVQLVESGGGLVQAGGSLRLSCAASGSTFWFYAMGWYRQAPGKERELVAAITRGGSTYYADSVKGRFSISRDNAKNTVYLQMNSLKPEDTAVYYCAAEVGWSRYKWLEYWGQGTQVTVSS” was “low polyreactivity”; that for “QVQLVESGGGLVQAGGSLRLSCAASGRIFSRYAMGWYRQAPGKERELVATISSSRGGTSTNYADSVKGRFTISRDNAKNTVYLQMNSLKPEDTAVYYCNALYGRQIVDYDYWGQGTQVTVSS” was “low polyreactivity”; that for “QVQLVESGGGLVQAGGSLRLSCAASGSIFEQYTMGWYRQAPGKERELVAAISRRSGRTYYADSVKGRFTISRDNAKNTVYLQMNRLKPEDTAVYYCNTVYYGNFYSTRYDYWGQGTQVTVSS” was “high polyreactivity”.
With “QVQLVESGGGLVQAGGSLRLSCAASGRTFSTYTMGWYRQAPGKERELVAAITSSGGGTYYADSVKGRFTISRDNAKNTVYLQMNSLKPEDTAVSYCGTVRTYRPPVRRGYWGQGTQVTVSS” the entry was “high polyreactivity”; with “QVQLVESGGGLVQAGGSLRLSCAASGRIFGSYAMGWYRQAPGKERELVASISGSGTSTYYADSVKGRFTISRDNAKNTVYLQMNSLKPEDTAVYYCARYVRYYPSKFYYWGQGTQVTVSS”, “high polyreactivity”.
“QVQLVESGAGLVQAGGSLRLSCAASGSTFTLNAMGWYRQAPGKERELVADISWSSGRTYYADSVKGRFTISRDNAKNTVDLQMNSLNPEDTAVYYCATDDFWIVKFYAYYPEFDYWGQVTQVTVSS”: the “polyreactivity (PSR sort gate)” value is “low polyreactivity”.
The value for “QVQLVESGGGLVQAGGSLRLSSAASGRTTKVYAMGWYRQGPGKPRELVARITSSGVRRYYADSVKGRFTISRDNAKNTVYLHMNSLKPEDTAVYYCGKDARALWLHSGIYDYSGQGTQVTVSS” was “low polyreactivity”; that for “QVQLVESGGGLVQAGGSLRLSCAASGSIFTTYAMGWYRQAPGKERELVAAISRAGDTTYADSVKGRFTISRDNAKNTVYLQMNSLKPEDTAVYYCADYDYWGQGTQVTVSS” was “low polyreactivity”; that for “QVQLVESGGGLVQAGGSLRLSCAASGRIFVKNAMGWYRQAPGKERELVAGISRGGSTYYADSVKGRFTISRDNAKNTVYLQMNSLKPEDTAVYYCATRNYGRGQFDYWGQGTQVTVSS” was “high polyreactivity”.
Take “QVQLVETGGGLVQAGGSLRLSCAASGSTFAKYVMGWYRPAPGKERELVAAISRRGSSTYYADSEKGRFTISRDYAKNTVYLQMNSLKPEDTAVYYCAARFRYSGFEGMDYWGQGNQVTVSS”: the “polyreactivity (PSR sort gate)” value is given as “high polyreactivity”.
For “QDQLVESGGGLVQAGGSLRLSCAASGSNFAVYAMGWSRQAPGKERELVAAISYRGARTYYADSVKGRFTISRDNAKNTVYLQMNSLKPEDTAVYYCAAQGVTSPGVDSWGQGTQVTVSS”, the “polyreactivity (PSR sort gate)” value was “high polyreactivity”.
The value for “QVQLVESGGGLVQAGGSLSLSCAASGRTFDDNAMGWYRQAPGKERELVAAISSTGSTNYADSLKGRFTISRDNAKNTVYLQMNSLKPEDTAVYYCNTDGGHERAYYYWGQCTQVTVSS” was “low polyreactivity”; that for “QVQLVESGGGLVQAGGIIRLSCAASGLIFSRYAMGWYRQAPGKETELVAAITQSGTSTYYADSVKGRFTISRDNANNTVYLQMTILKPEDTAVYYCNAYPQYRYDYWGQGTQVTVSS” was “low polyreactivity”; that for “QVQLVESGGGLVQAGGSLRLSCAASGLIFDDYAMGWYRQAPGKERELVAAISWSDGTTYYADSVKGRFTISRDNAKNTVYLQMNSLKTEDTAVYYCAAEEVSGWEYDYWGQGTQVTVSS” was “high polyreactivity”.
Take “QVQLVESGGGLVQAGGSPRLSCAASGRIFGAYAMGWYRQAPGQERELVAGNRSVGSTNYADSVKGRFTISRDNAKNTVYFQMNSLKPEDTAVYYCAARLWHLSYAGQGGDYWGQGTQVTVSS”: the “polyreactivity (PSR sort gate)” value is “low polyreactivity”.
The value for “QVQLEESGGGLVQAGGSLRLSCAASGSTFYRYAMGCYRQAPGKERELVAAMSRGGGRTNYADSVKGRFTISRDNAKNTVYLQMNSLKPEDTAVYYGAAYTYSFRANHDYWGQGTQVTVSS” was “high polyreactivity”; that for “QVQLVESGGGLVQAGGSLRLSCAASGFIFAEYAMGWYRQAPGKERELVATINIGGSTYYADSVKGRFTISRDNAKNTVYLQMTSLKPEDTAVYYCAAEFWWGDGSQGIYDYDYWGQGTQVSVSS” was “low polyreactivity”; that for “QVQLVESGGGLVQAGGSLRLSCAASGRIFGVNAMGWYRQAPGKEREFVAVISSVGSTYYADSVKGRFTISRDNAKNTVYLQMKSLKPEDTAVYYCNAVVGRWFPYYLSDYWGQGTQVTVSS” was “low polyreactivity”.
With “QVQLVESGAGLVQAGGSLRLSCAASGRIFAYNAMGWYRQAPGKERELVAGITIRGGRTYYADSVKGRFTISRYNAKNTVYLQMNSLKPEDTAVYYCNARGWYEYGWGQGTQVTVSS” the entry was “high polyreactivity”; with “QVQLVESGGALVQAGGSLRLSCAASGSIFYNAMGWYRQAPGKERELVAAISWRGTRTYYADSVKGRFTISRDNAKNTVYLQMNSLKPEDTAVYYCNKDYKYGVAYTRYDYWGQGTQVTVSS”, “high polyreactivity”.
Consider “QVQLVESGGGLVQAGGSLRLSCAASGKIFYEYTMGWYRQAPGKERELVAAISWSGVSTYYADSVKGRFTISRDNAKNTVYLQMNSLKPEDTAVYYCAADRGNDYWGQGTQVTVSS”, for which the “polyreactivity (PSR sort gate)” value is recorded as “low polyreactivity”.
With “QVQLVESGGGLVQAGGSLRLSCAASGNIFTKYAMGWYRQAPGKERELVAAITWSGGSTYYADSVKGRFTISRDNAKNTVDLQMNILKPEDTAVYYCATAHVFRRDKPYDYWGQGTQVTVSS” the entry was “high polyreactivity”; with “QVQLVESGGGLVQAGGSLRLSCAASGFTFTRYAMGWYRQAPGKERELVAVITYSGDTSYADSVKGRFTISRDNAKNTVYLQMNSLKPEDTAVYYCAVERAYYSDTGRYGYDYWGQGTQVTVSS”, “high polyreactivity”; with “QVQLVESGGGLVQAGGSLRLSCAASGFTFEVYAMGRYRQAPGKERELVAAITSSGGRTYYADSVKGRFTISRDYAKNTVYLQMNSLKPEDTAGYYCAAYVSYEYGYWGQGSQVTVSS”, “high polyreactivity”.
On to “QVQLVESGGGLVQAGGSLRLSCAASGRTFSPYVMGWYRQAPGKETELVATITGGGGSTYYADSVKGRFTISRDNAKNTVFLQMNSLKPEDTAVYYCARGYRYYVYRMGYWGQGTQVTVSS”, for which the “polyreactivity (PSR sort gate)” value is recorded as “high polyreactivity”.
With “QVQLVESGGGLVQAGGSLRLSCAASGFTFGWYAMGWYRQAPGKERELVADITYNDASTYYADSVKGRFTISRDNAKNTVYLQMNSLKPEDTAVYYCNAVHRRYLVTHPYDYWGQGTQVTVSS” the entry was “low polyreactivity”.
With “QVQLEESGGGLVQAGGSLRLSCAASGRTFNKNAMGWYRQAPGKERELVAAISYSGGRTYYADSVKGRFTISRDNAKNTVYLQMNSLKPEDTAVYYCAAWGSSYSFDYWGQGTQVTVSS” the entry was “high polyreactivity”.
